Assays:
Assay in all cases: EMSA
Rad52 = Rad52 (Saccharomyces cerevisiae, UniProt P06778)
Rad52 (K43,44R) = Rad52 (K43,44R) (Saccharomyces cerevisiae, UniProt P06778 1-471, K10R;K11R)
Rad52 (K253R) = Rad52 (K253R) (Saccharomyces cerevisiae, UniProt P06778 1-471, K220R)
Rad52 (K43,44,253R) = Rad52 (K43,44,253R) (Saccharomyces cerevisiae, UniProt P06778 1-471, K10R;K11R;K220R)

Measured: binding result

AGCTACCATGCCTGCACGAATTAAGCAATTCGTAATCATGGTCATAGCT (ssDNA) [49-mer ssDNA (Oligo-3)]
binds: all assays above
